In patent publication US20230212554A1:

Experiments:
[1] = substrate: NP of A/Wisconsin/67/2005(H3N2/H3W) (influenza A virus A/Wisconsin/67/2005 (H3N2)); experiment: sandwich ELISA, capture IgG; NP of lysed virus titrated; HRP-NP16 detection
[2] = substrate: NP of A/Wisconsin/67/2005(H3N2/H3W) (influenza A virus A/Wisconsin/67/2005 (H3N2)); experiment: sandwich ELISA, capture IgG; NP of lysed virus titrated; HRP-NP17 detection
[3] = substrate: NP of A/Wisconsin/67/2005(H3N2/H3W) (influenza A virus A/Wisconsin/67/2005 (H3N2)); experiment: ELISA on virus-infected fixed MDCK cells

Sequence of NP of A/Wisconsin/67/2005(H3N2/H3W) (influenza A virus A/Wisconsin/67/2005 (H3N2)) (P03466 whole entry): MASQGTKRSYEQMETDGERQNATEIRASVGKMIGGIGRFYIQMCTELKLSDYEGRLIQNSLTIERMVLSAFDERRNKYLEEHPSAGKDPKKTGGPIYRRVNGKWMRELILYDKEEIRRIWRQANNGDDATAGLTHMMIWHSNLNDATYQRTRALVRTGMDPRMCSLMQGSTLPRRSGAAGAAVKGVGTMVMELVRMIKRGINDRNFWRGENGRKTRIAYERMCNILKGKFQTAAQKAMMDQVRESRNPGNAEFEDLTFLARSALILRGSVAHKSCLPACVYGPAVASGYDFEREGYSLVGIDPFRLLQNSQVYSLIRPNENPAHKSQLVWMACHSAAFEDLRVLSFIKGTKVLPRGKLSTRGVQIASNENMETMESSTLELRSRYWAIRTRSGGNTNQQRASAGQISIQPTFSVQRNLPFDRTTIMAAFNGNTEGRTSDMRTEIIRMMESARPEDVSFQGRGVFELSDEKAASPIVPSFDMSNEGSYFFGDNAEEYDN

B1: NP22 (antibody, V domains shown)
VH: EVQLVESGGGLVQPGGSLRLSCAASGFTISDWSIHWVRQAPGKGLEWVAGIWPYWGSTSYADSVKGRFTISADTSKNTAYLQMNSLRAEDTAVYYCARGFYSWFDYWGQGTLVTVSS
VL: DIQMTQSPSSLSASVGDRVTITCRASQDVFSWVAWYQQKPGKAPKLLISSASSLYSGVPSRFSGSGSGTDFTLTISSLQPEDFATYYCQQSWDYPITFGQGTKVEIKR
[1]
  EC50: 91.4 nM
[2]
  EC50: 82.8 nM

B2: NP19 (antibody, V domains shown)
VH: EVQLVESGGGLVQPGGSLRLSCAASGFTISSWGIHWVRQAPGKGLEWVAGIGPFWGYTSYADSVKGRFTISADTSKNTAYLQMNSLRAEDTAVYYCARFGVDNYGYMDYWGQGTLVTVSS
VL: DIQMTQSPSSLSASVGDRVTITCRASQDVSGWVAWYQQKPGKAPKLLISWSTGLYSGVPSRFSGSGSGTDFTLTISSLQPEDFATYYCQQYFNFPVTFGQGTKVEIKR
[3]
  EC50: 0.215 nM
[1]
  EC50: 3.88 nM
[2]
  EC50: 0.765 nM

B3: NP17 (antibody, V domains shown)
VH: EVQLVESGGGLVQPGGSLRLSCAASGFTISGGSIHWVRQAPGKGLEWVASIWPFGGSTFYADSVKGRFTISADTSKNTAYLQMNSLRAEDTAVYYCARFGHGHNVIMDYWGQGTLVTVSS
VL: DIQMTQSPSSLSASVGDRVTITCRASQDVGYSVAWYQQKPGKAPKLLISSPGGLYSGVPSRFSGSGSGTDFTLTISSLQPEDFATYYCQQYYDYPVTFGQGTKVEIKR
[1]
  EC50: 3.09 nM
[2]
  EC50: 1.07 nM

B4: NP15 (antibody, V domains shown)
VH: EVQLVESGGGLVQPGGSLRLSCAASGFTISNWYIHWVRQAPGKGLEWVAGIGPYGGSTYYADSVKGRFTISADTSKNTAYLQMNSLRAEDTAVYYCARFHWDHLHGMDYWGQGTLVTVSS
VL: DIQMTQSPSSLSASVGDRVTITCRASQDVDNNVAWYQQKPGKAPKLLISYSTGLYSGVPSRFSGSGSGTDFTLTISSLQPEDFATYYCQQYWNYPITFGQGTKVEIKR
[3]
  EC50: 0.449 nM
[1]
  EC50: 2.52 nM
[2]
  EC50: 0.779 nM

B5: NP16 (antibody, V domains shown)
VH: EVQLVESGGGLVQPGGSLRLSCAASGFTIGNSGIHWVRQAPGKGLEWVAWIGPYWGFTSYADSVKGRFTISADTSKNTAYLQMNSLRAEDTAVYYCARFGNHWHLFMDYWGQGTLVTVSS
VL: DIQMTQSPSSLSASVGDRVTITCRASQDVGSYVAWYQQKPGKAPKLLISWTTGLYSGVPSRFSGSGSGTDFTLTISSLQPEDFATYYCQQYFSYPVTFGQGTKVEIKR
[3]
  EC50: 0.248 nM
[1]
  EC50: 4.1 nM
[2]
  EC50: 0.891 nM

B6: NP21 (antibody, V domains shown)
VH: EVQLVESGGGLVQPGGSLRLSCAASGFTINGYGIHWVRQAPGKGLEWVAGIWPYGGSTFYADSVKGRFTISADTSKNTAYLQMNSLRAEDTAVYYCARFYNNHGGIMDYWGQGTLVTVSS
VL: DIQMTQSPSSLSASVGDRVTITCRASQDVYFYVAWYQQKPGKAPKLLIYGSRWLYSGVPSRFSGSGSGTDFTLTISSLQPEDFATYYCQQYSNFPVTFGQGTKVEIKR
[1]
  EC50: 2.88 nM
[2]
  EC50: 0.848 nM

B7: NP7 (antibody, V domains shown)
VH: EVQLVESGGGLVQPGGSLRLSCAASGFTISNGGIHWVRQAPGKGLEWVAGIGPYGGFTSYADSVKGRFTISADTSKNTAYLQMNSLRAEDTAVYYCARFYSNYYGYHGVMDYWGQGTLVTVSS
VL: DIQMTQSPSSLSASVGDRVTITCRASQDVFGWVAWYQQKPGKAPKLLISYSASLYSGVPSRFSGSGSGTDFTLTISSLQPEDFATYYCQQYFNYPLTFGQGTKVEIKR
[1]
  EC50: 2.26 nM
[2]
  EC50: 0.821 nM

B8: NP3 (antibody, V domains shown)
VH: EVQLVESGGGLVQPGGSLRLSCAASGFTISNYGIHWVRQAPGKGLEWVAGIWPFGGFTSYADSVKGRFTISADTSKNTAYLQMNSLRAEDTAVYYCARFHWNDHGYMDYWGQGTLVTVSS
VL: DIQMTQSPSSLSASVGDRVTITCRASQDVGWYVAWYQQKPGKAPKLLIYSTTGLYSGVPSRFSGSGSGTDFTLTISSLQPEDFATYYCQQYYNYPITFGQGTKVEIKR
[3]
  EC50: 0.25 nM
[1]
  EC50: 1.81 nM
[2]
  EC50: 0.828 nM

B9: NP5 (antibody, V domains shown)
VH: EVQLVESGGGLVQPGGSLRLSCAASGFTISNGSIHWVRQAPGKGLEWVAGIWPSGGSTSYADSVKGRFTISADTINNSAYLQMNSLRAEDTAVYYCARWNYWGQGTLVTVSS
VL: DIQMTQSPSSLSASVGDRVTITCRASQDVGWSVAWYQQKPGKAPKLLIYGSRWLYSGVPSRFSGSGSGTDFTLTISSLQPEDFATYYCQQGYNGPLTFGQGTKVEIKR
[1]
  EC50: 3.13 nM
[2]
  EC50: 0.879 nM

B10: NP6 (antibody, V domains shown)
VH: EVQLVESGGGLVQPGGSLRLSCAASGFTINDGSIHWVRQAPGKGLEWVAGIGPFGGFTYYADSVKGRFTISADTSKNTAYLQMNSLRAEDTAVYYCARSGYSGSFDYWGQGTLVTVSS
VL: DIQMTQSPSSLSASVGDRVTITCRASQDVYFGVAWYQQKPGKAPKLLIYGTSYLYSGVPSRFSGSGSGTDFTLTISSLQPEDFATYYCQQFSNWPITFGQGTKVEIKR
[1]
  EC50: 2.7 nM
[2]
  EC50: 1.98 nM

B11: NP18 (antibody, V domains shown)
VH: EVQLVESGGGLVQPGGSLRLSCAASGFTISGGGIHWVRQAPGKGLEWVASIWPSWGSTSYADSVKGRFTISADTSKNTAYLQMNSLRAEDTAVYYCARFHNGGFLVMDYWGQGTLVTVSS
VL: DIQMTQSSSSLSASVGDRVTITCRASQDVGYYVAWYQQKPGKAPKLLIYGPRFLYSGVPSRFSGSGSGTDFTLTISSLQPEDFATYYCQQYSNWPITFGQGTKVEIKR
[3]
  EC50: 0.192 nM
[2]
  EC50: 1000 nM
